Target: surface GFP (GFP fused to the PDGF transmembrane domain) [GFP: P42212]
Experiment: cell-based or functional assay

## α-GFP nanobody (LaG16_2) synNotch Gal4VP64 receptor (from UniProt Q01705 1427-1752)
  fraction of T cells with BFP reporter expression at 24 hours: > 50%

From US20250243257A1
